In patent US20070224205A1 one finds TLR activity (EC50, ng/ml); IL-8 secretion by HEK293 cells and TLR5 activity (EC50, ng/ml); IL-8 secretion by HEK293 cells data, which are given here for 3 molecules.

The target of the test is Toll-like Receptor 5 (UniProt O60602). Description: cell-based or functional assay.

B1: STF2.HA1-2mutHis(PR8), produced in Baculovirus (protein)
chain: AQVINTNSLSLLTQNNLNKSQSALGTAIERLSSGLRINSAKDDAAGQAIANRFTANIKGLTQASRNANDGISIAQTTEGALNEINNNLQRVRELAVQSANSTNSQSDLDSIQAEITQRLNEIDRVSGQTQFNGVKVLAQDNTLTIQVGANDGETIDIDLKQINSQTLGLDSLNVQKAYDVKDTAVTTKAYANNGTTLDVSGLDDAAIKAATGGTNGTASVTGGAVKFDADNNKYFVTIGGFTGADAAKNGDYEVNVATDGTVTLAAGATKTTMPAGATTKTEVQELKDTPAVVSADAKNALIAGGVDATDANGAELVKMSYTDKNGKTIEGGYALKAGDKYYAADYDEATGAIKAKTTSYTAADGTTKTAANQLGGVDGKTEVVTIDGKTYNASKAAGHDFKAQPELAEAAAKTTENPLQKIDAALAQVDALRSDLGAVQNRFNSAITNLGNTVNNLSEARSRIEDSDYATEVSNMSRAQILQQAGTSVLAQANQVPQNVLSLLASGSGSGSKGAAPLQLGKCNIAGWLLGNPECDPLLPVRSWSDIAETPNSENGICYPGDFIDYEELREQLSSVSSFERFEIFPKESSWPNHNTNGVTAACSHEGKSSFYRNLLWLTEKEGSYPKLKNSYVNKKGKEVLVLWGIHHPPNSKEQQNLYQNENAYVSVVTSNYNRRFTPEIAERPKVRDQAGRMNYYWTLLKPGDTIIFEANGNLIAPMYAFALSRGFGSGIITSHHHHHH
B1 registered a TLR activity (EC50, ng/ml); IL-8 secretion by HEK293 cells of 900 ng/mL.

B2: STF2.HA1-2His(PR8), produced in Baculovirus (protein)
chain: AQVINTNSLSLLTQNNLNKSQSALGTAIERLSSGLRINSAKDDAAGQAIANRFTANIKGLTQASRNANDGISIAQTTEGALNEINNNLQRVRELAVQSANSTNSQSDLDSIQAEITQRLNEIDRVSGQTQFNGVKVLAQDNTLTIQVGANDGETIDIDLKQINSQTLGLDSLNVQKAYDVKDTAVTTKAYANNGTTLDVSGLDDAAIKAATGGTNGTASVTGGAVKFDADNNKYFVTIGGFTGADAAKNGDYEVNVATDGTVTLAAGATKTTMPAGATTKTEVQELKDTPAVVSADAKNALIAGGVDATDANGAELVKMSYTDKNGKTIEGGYALKAGDKYYAADYDEATGAIKAKTTSYTAADGTTKTAANQLGGVDGKTEVVTIDGKTYNASKAAGHDFKAQPELAEAAAKTTENPLQKIDAALAQVDALRSDLGAVQNRFNSAITNLGNTVNNLSEARSRIEDSDYATEVSNMSRAQILQQAGTSVLAQANQVPQNVLSLLASGSGSGSKGIAPQLGKCNIAGWLLGNPECDPLLPVRSWSYIVETPNSENGICYPGDFIDYEELREQLSSVSSFERFEIFPKESSWPNHNTNGVTAACSHEGKSSFYRNLLWLTEKEGSYPKLKNSYVNKKGKEVLVLWGIHHPPNSKEQQNLYQNENAYVSVVTSNYNRRFTPEIAERPKVRDQAGRMNYYWTLLKPGDTIIFEANGNLIAPMYAFALSRGFGSGIITSHHHHHH
Molecule B2 yielded a TLR activity (EC50, ng/ml); IL-8 secretion by HEK293 cells of 9 ng/mL.

B3: STF2.HA1-1His(PR8), produced in E. coli (protein)
chain: MAQVINTNSLSLLTQNNLNKSQSALGTAIERLSSGLRINSAKDDAAGQAIANRFTANIKGLTQASRNANDGISIAQTTEGALNEINNNLQRVRELAVQSANSTNSQSDLDSIQAEITQRLNEIDRVSGQTQFNGVKVLAQDNTLTIQVGANDGETIDIDLKQINSQTLGLDSLNVQKAYDVKDTAVTTKAYANNGTTLDVSGLDDAAIKAATGGTNGTASVTGGAVKFDADNNKYFVTIGGFTGADAAKNGDYEVNVATDGTVTLAAGATKTTMPAGATTKTEVQELKDTPAVVSADAKNALIAGGVDATDANGAELVKMSYTDKNGKTIEGGYALKAGDKYYAADYDEATGAIKAKTTSYTAADGTTKTAANQLGGVDGKTEVVTIDGKTYNASKAAGHDFKAQPELAEAAAKTTENPLQKIDAALAQVDALRSDLGAVQNRFNSAITNLGNTVNNLSEARSRIEDSDYATEVSNMSRAQILQQAGTSVLAQANQVPQNVLSLLASHNGKLCRLKGIAPLQLGKCNIAGWLLGNPECDPLLPVRSWSYIVETPNSENGICYPGDFIDYEELREQLSSVSSFERFEIFPKESSWPNHNTNGVTAACSHEGKSSFYRNLLWLTEKEGSYPKLKNSYVNKKGKEVLVLWGIHHPPNSKEQQNLYQNENAYVSVVTSNYNRRFTPEIAERPKVRDQAGRMNYYWTLLKPGDTIIFEANGNLIAPMYAFALSRGFGSGIITSNASMHECNTKCQTPLGAINSSLPYQNIHPVTIGECPKYVRHHHHHH
Regarding B3, the TLR5 activity (EC50, ng/ml); IL-8 secretion by HEK293 cells came to 0.2 ng/mL.
